This is an account of results in PMC13087191 (Scientific Reports, 2026).

B2: UBXN7-SBP (natural protein, human, UniProt O94888 1-489, looked up)
chain: MAAHGGSAASSALKGLIQQFTTITGASESVGKHMLEACNNNLEMAVTMFLDGGGIAEEPSTSSASVSTVRPHTEEEVRAPIPQKQEILVEPEPLFGAPKRRRPARSIFDGFRDFQTETIRQEQELRNGGAIDKKLTTLADLFRPPIDLMHKGSFETAKECGQMQNKWLMINIQNVQDFACQCLNRDVWSNEAVKNIIREHFIFWQVYHDSEEGQRYIQFYKLGDFPYVSILDPRTGQKLVEWHQLDVSSFLDQVTGFLGEHGQLDGLSSSPPKKCARSESLIDASEDSQLEAAIRASLQETHFDSTQTKQDSRSDEESESELFSGSEEFISVCGSDEEEEVENLAKSRKSPHKDLGHRKEENRRPLTEPPVRTDPGTATNHQGLPAVDSEILEMPPEKADGVVEGIDVNGPKAQLMLRYPDGKREQITLPEQAKLLALVKHVQSKGYPNERFELLTNFPRRKLSHLDYDITLQEAGLCPQETVFVQERN
notes: UBXN7, human, wild type; also called SBP-tagged version of UBXN7; homolog of Ubx5; source: E. coli BL21 CodonPlus (DE3) RIPL, purified (Ni-NTA, SEC); not shown: SBP, C-terminal, kept

What all share (conditions): both partners purified
The target in the experiment “UBXN7-SBP” is B2. The experiment can be described thus: pull-down; 1 µM UBXN7-SBP on streptavidin agarose with 1 µM p97, 1 µM human UN, 1 µM Yod1-C160S and 1 µM Ub(n)-TAIL, SEC buffer, 5 mM ATPγS, 1 h, 4 °C; eluted with 2 mM biotin; Coomassie.
The next experiment concerns the target T1, human Npl4 (human, UniProt Q8TAT6 1-608).
T1 construct: Npl4, human; The plasmid paragraph tells of Npl4 in pET21 with a C-terminal His6 or FLAG-His6 tag and the purification paragraph of an untagged UN complex; neither says which holds for the human protein; also called hNpl4; source: purified; part of the 'human UN' complex
The description is as above.

Another experiment has as its target T2, Human p97 ATPase (human, UniProt P55072 1-806).
T2 construct: p97 (VCP), human, wild type; also called VCP; homolog of Cdc48; source: E. coli BL21 CodonPlus (DE3) RIPL, purified (Ni-NTA, SEC)
Described as above.

The target of another experiment is T3, Cdc48-UN ATPase complex (S. cerevisiae, UniProt P25694 1-835; P53044 1-361; P33755 1-580).
T3 construct: Cdc48 ATPase of S. cerevisiae, wild type; Ufd1 of S. cerevisiae; Npl4 of S. cerevisiae; also called Cdc48 with the Ufd1-Npl4 (UN) complex; source: E. coli BL21 CodonPlus (DE3) RIPL, purified (Ni-NTA, SEC); Cdc48 and UN mixed; copies: 6 + +
The experiment is described as follows: pull-down; 1 µM Otu1-C120S-FLAG on anti-FLAG M2 agarose with 1 µM Cdc48, 1 µM UN and 1 µM Ub(n)-TAIL, with or without 1 µM Ubx5, SEC buffer, 5 mM ATPγS, 1 h, 4 °C; eluted with 3xFLAG peptide; fluorescence scan and Coomassie.

T1 sequence (Q8TAT6 whole entry): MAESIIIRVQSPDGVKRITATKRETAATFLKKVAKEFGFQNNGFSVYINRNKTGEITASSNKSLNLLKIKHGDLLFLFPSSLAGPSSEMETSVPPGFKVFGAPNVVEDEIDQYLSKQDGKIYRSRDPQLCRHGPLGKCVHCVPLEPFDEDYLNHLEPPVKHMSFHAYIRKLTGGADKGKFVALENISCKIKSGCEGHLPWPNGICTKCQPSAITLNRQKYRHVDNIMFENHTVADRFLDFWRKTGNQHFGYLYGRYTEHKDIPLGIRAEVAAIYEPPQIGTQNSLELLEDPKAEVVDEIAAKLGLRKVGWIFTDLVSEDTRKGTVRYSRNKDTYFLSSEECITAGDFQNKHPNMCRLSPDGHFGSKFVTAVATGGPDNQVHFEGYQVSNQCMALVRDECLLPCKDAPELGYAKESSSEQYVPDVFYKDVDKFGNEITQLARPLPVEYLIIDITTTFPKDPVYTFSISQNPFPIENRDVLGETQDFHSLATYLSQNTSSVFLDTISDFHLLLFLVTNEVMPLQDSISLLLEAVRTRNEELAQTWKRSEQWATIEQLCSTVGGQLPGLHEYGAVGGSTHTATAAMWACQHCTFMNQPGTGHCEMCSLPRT
T2 sequence (P55072 whole entry): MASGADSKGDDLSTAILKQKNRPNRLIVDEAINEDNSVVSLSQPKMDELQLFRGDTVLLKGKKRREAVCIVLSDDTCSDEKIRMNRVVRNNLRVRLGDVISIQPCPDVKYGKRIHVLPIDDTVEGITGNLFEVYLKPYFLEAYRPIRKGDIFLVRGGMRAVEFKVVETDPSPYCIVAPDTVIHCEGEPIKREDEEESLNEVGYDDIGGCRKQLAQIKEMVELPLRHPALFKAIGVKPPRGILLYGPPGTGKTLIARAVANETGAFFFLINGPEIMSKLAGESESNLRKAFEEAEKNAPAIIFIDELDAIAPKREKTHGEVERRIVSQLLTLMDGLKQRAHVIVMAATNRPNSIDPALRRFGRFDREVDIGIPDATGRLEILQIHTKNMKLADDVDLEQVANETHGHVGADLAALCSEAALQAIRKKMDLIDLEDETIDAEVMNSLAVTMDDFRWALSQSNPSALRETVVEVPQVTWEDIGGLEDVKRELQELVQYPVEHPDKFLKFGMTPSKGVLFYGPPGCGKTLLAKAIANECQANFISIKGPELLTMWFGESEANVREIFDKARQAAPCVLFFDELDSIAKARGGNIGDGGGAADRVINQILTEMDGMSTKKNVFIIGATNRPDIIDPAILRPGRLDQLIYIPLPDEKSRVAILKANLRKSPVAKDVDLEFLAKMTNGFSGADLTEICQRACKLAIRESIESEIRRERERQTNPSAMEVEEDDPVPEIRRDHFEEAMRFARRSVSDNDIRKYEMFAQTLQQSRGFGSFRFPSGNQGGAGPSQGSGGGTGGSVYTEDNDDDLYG
T3 sequence (P25694 whole entry, chain 1 of 3): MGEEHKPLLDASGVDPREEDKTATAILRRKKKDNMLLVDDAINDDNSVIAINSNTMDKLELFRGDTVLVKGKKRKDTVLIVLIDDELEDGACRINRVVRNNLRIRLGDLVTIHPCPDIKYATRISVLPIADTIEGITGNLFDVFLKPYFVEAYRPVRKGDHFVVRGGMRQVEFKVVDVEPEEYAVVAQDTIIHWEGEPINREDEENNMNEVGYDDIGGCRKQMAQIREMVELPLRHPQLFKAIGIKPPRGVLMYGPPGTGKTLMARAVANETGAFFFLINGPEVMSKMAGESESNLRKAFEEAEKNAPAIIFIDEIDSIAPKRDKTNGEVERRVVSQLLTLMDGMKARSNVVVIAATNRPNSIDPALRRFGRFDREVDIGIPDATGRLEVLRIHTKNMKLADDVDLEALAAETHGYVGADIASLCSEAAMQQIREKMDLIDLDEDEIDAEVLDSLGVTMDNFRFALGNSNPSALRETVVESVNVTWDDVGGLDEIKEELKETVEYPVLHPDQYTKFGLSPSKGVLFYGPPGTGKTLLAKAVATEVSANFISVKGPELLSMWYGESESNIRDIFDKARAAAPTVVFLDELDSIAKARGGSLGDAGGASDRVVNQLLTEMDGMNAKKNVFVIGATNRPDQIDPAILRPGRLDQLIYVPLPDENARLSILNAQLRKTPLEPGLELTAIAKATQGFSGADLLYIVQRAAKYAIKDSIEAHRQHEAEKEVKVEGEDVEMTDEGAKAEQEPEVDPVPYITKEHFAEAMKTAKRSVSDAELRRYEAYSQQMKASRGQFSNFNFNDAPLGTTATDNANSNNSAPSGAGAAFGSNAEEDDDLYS
T3 sequence (P53044 whole entry, chain 2 of 3): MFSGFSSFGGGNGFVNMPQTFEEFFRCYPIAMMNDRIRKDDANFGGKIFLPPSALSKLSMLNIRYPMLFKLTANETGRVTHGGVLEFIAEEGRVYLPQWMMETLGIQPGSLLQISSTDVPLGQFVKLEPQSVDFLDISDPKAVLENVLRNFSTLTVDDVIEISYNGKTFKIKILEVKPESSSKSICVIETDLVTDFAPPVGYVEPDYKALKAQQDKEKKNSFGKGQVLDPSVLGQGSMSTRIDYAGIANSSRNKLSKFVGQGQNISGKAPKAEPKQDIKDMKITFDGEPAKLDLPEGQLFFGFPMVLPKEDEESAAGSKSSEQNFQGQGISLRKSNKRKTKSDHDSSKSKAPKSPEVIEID
T3 sequence (P33755 whole entry, chain 3 of 3): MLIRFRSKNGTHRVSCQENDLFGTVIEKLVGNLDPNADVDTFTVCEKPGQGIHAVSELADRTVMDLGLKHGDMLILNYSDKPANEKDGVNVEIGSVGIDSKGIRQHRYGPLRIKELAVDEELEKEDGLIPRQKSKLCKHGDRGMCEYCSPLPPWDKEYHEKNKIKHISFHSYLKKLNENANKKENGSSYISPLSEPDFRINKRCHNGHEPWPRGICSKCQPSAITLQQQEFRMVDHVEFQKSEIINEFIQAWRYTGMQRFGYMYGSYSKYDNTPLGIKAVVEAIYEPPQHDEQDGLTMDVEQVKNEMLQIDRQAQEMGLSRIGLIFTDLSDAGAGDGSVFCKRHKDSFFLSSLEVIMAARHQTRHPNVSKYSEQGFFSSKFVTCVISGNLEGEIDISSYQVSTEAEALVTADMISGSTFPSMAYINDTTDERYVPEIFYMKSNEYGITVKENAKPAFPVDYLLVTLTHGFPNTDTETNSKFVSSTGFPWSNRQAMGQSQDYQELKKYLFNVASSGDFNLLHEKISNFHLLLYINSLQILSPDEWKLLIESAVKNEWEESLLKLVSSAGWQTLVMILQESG

B1: Yod1-C160S (enzyme, human, UniProt Q5VVQ6 1-348, looked up)
chain: MFGPAKGRHFGVHPAPGFPGGVSQQAAGTKAGPAGAWPVGSRTDTMWRLRCKAKDGTHVLQGLSSRTRVRELQGQIAAITGIAPGGQRILVGYPPECLDLSNGDTILEDLPIQSGDMLIIEEDQTRPRSSPAFTKRGASSYVRETLPVLTRTVVPADNSSLFTSVYYVVEGGVLNPACAPEMRRLIAQIVASDPDFYSEAILGKTNQEYCDWIKRDDTWGGAIEISILSKFYQCEICVVDTQTVRIDRFGEDAGYTKRVLLIYDGIHYDPLQRNFPDPDTPPLTIFSSNDDIVLVQALELADEARRRRQFTDVNRFTLRCMVCQKGLTGQAEAREHAKETGHTNFGEV
notes: Yod1, human, with the active-site mutation C160S; also called homolog of Otu1; source: E. coli BL21 CodonPlus (DE3) RIPL, purified (Ni-NTA, SEC)
On to B1, for which, in the experiment with UBXN7-SBP, the binding result was “binds”.
As to B2, the binding result with human Npl4 and in the experiment with Human p97 ATPase was “binds” each time.

B3: Otu1-C120S-FLAG (enzyme, S. cerevisiae, UniProt P43558 1-301, looked up)
chain: MKLKVTGAGINQVVTLKQDATLNDLIEHINVDVKTMRFGYPPQRINLQGEDASLGQTQLDELGINSGEKITIESSDSNESFSLPPPQPKPKRVLKSTEMSIGGSGENVLSVHPVLDDNSSLFHAIAYGIFKQDSVRDLREMVSKEVLNNPVKFNDAILDKPNKDYAQWILKMESWGGAIEIGIISDALAVAIYVVDIDAVKIEKFNEDKFDNYILILFNGIHYDSLTMNEFKTVFNKNQPESDDVLTAALQLASNLKQTGYSFNTHKAQIKCNTCQMTFVGEREVARHAESTGHVDFGQNR
notes: Otu1, deubiquitinating enzyme of S. cerevisiae (Yod1 in mammals), with the active-site mutation C120S; pET28 with an N-terminal His6-tag and a TEV-protease cleavage site followed by a FLAG tag; source: E. coli BL21 CodonPlus (DE3) RIPL, purified (Ni-NTA, SEC)
B3: the binding result with Cdc48-UN ATPase complex is “binds”.
